Reference: the supplement of paper PMC10567573

B1: RAB40B (parent)
chain: YSLTTSSTHKRSSLRKVKLVRPPQ

Variants of: B1
Assay: protein stability index of a GFP-peptide fusion (GPS, HEK-293T) (PSI 1-6); higher = more stable
Settings: c terminus: a fixed tail appended
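Also: lentivirally expressed fusions sorted by FACS into six bins by GFP to DsRed ratio, PSI derived from sequencing read proportions per bin multiplied by bin number.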

Variant	protein stability index
YSLTNSSTHKRSSLRKVKLVRPPQ [T5N]	3.83
YSLTVSSTHKRSSLRKVKLVRPPQ [T5V]	2.79
YSLTASSTHKRSSLRKVKLVRPPQ [T5A]	3.48
YSLTDSSTHKRSSLRKVKLVRPPQ [T5D]	3.4
YSLTLSSTHKRSSLRKVKLVRPPQ [T5L]	2.91
YSLTPSSTHKRSSLRKVKLVRPPQ [T5P]	3.05
YSLTKSSTHKRSSLRKVKLVRPPQ [T5K]	3.2
YSLTRSSTHKRSSLRKVKLVRPPQ [T5R]	3.43
YSLTMSSTHKRSSLRKVKLVRPPQ [T5M]	2.97
YSLTCSSTHKRSSLRKVKLVRPPQ [T5C]	2.62
YSLTHSSTHKRSSLRKVKLVRPPQ [T5H]	2.81
YSLTFSSTHKRSSLRKVKLVRPPQ [T5F]	2.05
YSLTYSSTHKRSSLRKVKLVRPPQ [T5Y]	2.53
YSLTESSTHKRSSLRKVKLVRPPQ [T5E]	3.62
YSLTGSSTHKRSSLRKVKLVRPPQ [T5G]	3.25
YSLTISSTHKRSSLRKVKLVRPPQ [T5I]	1.86
YSLTQSSTHKRSSLRKVKLVRPPQ [T5Q]	3.44
YSLTSSSTHKRSSLRKVKLVRPPQ [T5S]	3.07
YALTTSSTHKRSSLRKVKLVRPPQ [S2A]	2.44
YFLTTSSTHKRSSLRKVKLVRPPQ [S2F]	1.82
YGLTTSSTHKRSSLRKVKLVRPPQ [S2G]	3.06
YILTTSSTHKRSSLRKVKLVRPPQ [S2I]	1.98
YYLTTSSTHKRSSLRKVKLVRPPQ [S2Y]	1.93
YCLTTSSTHKRSSLRKVKLVRPPQ [S2C]	2.3

Variant	protein stability index
YTLTTSSTHKRSSLRKVKLVRPPQ [S2T]	2.81
YQLTTSSTHKRSSLRKVKLVRPPQ [S2Q]	2.74
YWLTTSSTHKRSSLRKVKLVRPPQ [S2W]	1.64
YNLTTSSTHKRSSLRKVKLVRPPQ [S2N]	2.96
YHLTTSSTHKRSSLRKVKLVRPPQ [S2H]	2.09
YELTTSSTHKRSSLRKVKLVRPPQ [S2E]	3.12
YDLTTSSTHKRSSLRKVKLVRPPQ [S2D]	3.75
YPLTTSSTHKRSSLRKVKLVRPPQ [S2P]	2.74
YRLTTSSTHKRSSLRKVKLVRPPQ [S2R]	3.56
YMLTTSSTHKRSSLRKVKLVRPPQ [S2M]	2.81
YKLTTSSTHKRSSLRKVKLVRPPQ [S2K]	2.95
YVLTTSSTHKRSSLRKVKLVRPPQ [S2V]	2.38
YLLTTSSTHKRSSLRKVKLVRPPQ [S2L]	2.48
FSLTTSSTHKRSSLRKVKLVRPPQ [Y1F]	2.81
LSLTTSSTHKRSSLRKVKLVRPPQ [Y1L]	3.15
NSLTTSSTHKRSSLRKVKLVRPPQ [Y1N]	4.04
DSLTTSSTHKRSSLRKVKLVRPPQ [Y1D]	4.11
RSLTTSSTHKRSSLRKVKLVRPPQ [Y1R]	3.94
TSLTTSSTHKRSSLRKVKLVRPPQ [Y1T]	3.66
WSLTTSSTHKRSSLRKVKLVRPPQ [Y1W]	3.19
ISLTTSSTHKRSSLRKVKLVRPPQ [Y1I]	3.15
ASLTTSSTHKRSSLRKVKLVRPPQ [Y1A]	3.99
KSLTTSSTHKRSSLRKVKLVRPPQ [Y1K]	3.61
VSLTTSSTHKRSSLRKVKLVRPPQ [Y1V]	2.74

Variant	protein stability index
QSLTTSSTHKRSSLRKVKLVRPPQ [Y1Q]	3.82
CSLTTSSTHKRSSLRKVKLVRPPQ [Y1C]	3.16
ESLTTSSTHKRSSLRKVKLVRPPQ [Y1E]	4.12
HSLTTSSTHKRSSLRKVKLVRPPQ [Y1H]	3.46
GSLTTSSTHKRSSLRKVKLVRPPQ [Y1G]	3.75
PSLTTSSTHKRSSLRKVKLVRPPQ [Y1P]	3.97
MSLTTSSTHKRSSLRKVKLVRPPQ [Y1M]	3.2
SSLTTSSTHKRSSLRKVKLVRPPQ [Y1S]	4.16
YSKTTSSTHKRSSLRKVKLVRPPQ [L3K]	3.43
YSITTSSTHKRSSLRKVKLVRPPQ [L3I]	2.88
YSDTTSSTHKRSSLRKVKLVRPPQ [L3D]	3.7
YSATTSSTHKRSSLRKVKLVRPPQ [L3A]	3.88
YSNTTSSTHKRSSLRKVKLVRPPQ [L3N]	3.3
YSHTTSSTHKRSSLRKVKLVRPPQ [L3H]	3.06
YSMTTSSTHKRSSLRKVKLVRPPQ [L3M]	2.97
YSCTTSSTHKRSSLRKVKLVRPPQ [L3C]	3
YSGTTSSTHKRSSLRKVKLVRPPQ [L3G]	3.18
YSTTTSSTHKRSSLRKVKLVRPPQ [L3T]	3.08
YSYTTSSTHKRSSLRKVKLVRPPQ [L3Y]	2.24
YSPTTSSTHKRSSLRKVKLVRPPQ [L3P]	2.96
YSRTTSSTHKRSSLRKVKLVRPPQ [L3R]	3.34
YSWTTSSTHKRSSLRKVKLVRPPQ [L3W]	2.02
YSSTTSSTHKRSSLRKVKLVRPPQ [L3S]	3.13
YSFTTSSTHKRSSLRKVKLVRPPQ [L3F]	2.57

Variant	protein stability index
YSVTTSSTHKRSSLRKVKLVRPPQ [L3V]	3.17
YSETTSSTHKRSSLRKVKLVRPPQ [L3E]	3.94
YSQTTSSTHKRSSLRKVKLVRPPQ [L3Q]	3.31
YSLTTCSTHKRSSLRKVKLVRPPQ [S6C]	2.95
YSLTTWSTHKRSSLRKVKLVRPPQ [S6W]	2.17
YSLTTFSTHKRSSLRKVKLVRPPQ [S6F]	2.38
YSLTTISTHKRSSLRKVKLVRPPQ [S6I]	2.58
YSLTTASTHKRSSLRKVKLVRPPQ [S6A]	2.88
YSLTTQSTHKRSSLRKVKLVRPPQ [S6Q]	2.92
YSLTTLSTHKRSSLRKVKLVRPPQ [S6L]	2.93
YSLTTMSTHKRSSLRKVKLVRPPQ [S6M]	2.62
YSLTTVSTHKRSSLRKVKLVRPPQ [S6V]	2.83
YSLTTTSTHKRSSLRKVKLVRPPQ [S6T]	3.29
YSLTTKSTHKRSSLRKVKLVRPPQ [S6K]	3.33
YSLTTPSTHKRSSLRKVKLVRPPQ [S6P]	2.63
YSLTTRSTHKRSSLRKVKLVRPPQ [S6R]	2.96
YSLTTNSTHKRSSLRKVKLVRPPQ [S6N]	2.77
YSLTTGSTHKRSSLRKVKLVRPPQ [S6G]	3.34
YSLTTHSTHKRSSLRKVKLVRPPQ [S6H]	3.42
YSLTTESTHKRSSLRKVKLVRPPQ [S6E]	3.57
YSLTTDSTHKRSSLRKVKLVRPPQ [S6D]	3.05
YSLTTYSTHKRSSLRKVKLVRPPQ [S6Y]	2.48
